Measured values taken from PMC11395145, “The Archetypal Gamma-Core Motif of Antimicrobial Cys-Rich Peptides Inhibits H^+-ATPases in Target Pathogens” (International Journal of Molecular Sciences, 2024).

Tests used:
[1] = system: Pseudomonas aeruginosa 10145 (PAO1); test: Microbicidal (spread-plate cell viability) assay, pseudomonacidal activity; type: cell-based; details: Tris buffer with 50 mM KCl vs without
Protocol: (§1) First, we tested the antimicrobial activity of Kal-1 and a shorter Kal-1-derived peptide (Kdp15), both containing the complete γ-core signature of human lactoferrin, against C. albicans and P. aeruginosa. Microbicidal (cidal) activity was determined after 90 min of incubation (37 °C; pH 7.4) with a range of concentrations of each hLf-derived peptide.
Figure 1 Cell viability and membrane permeabilization assays. C. albicans or P. aeruginosa (10^6 cells/mL) were incubated (90 min, 37 °C) with each peptide/protein at the indicated concentrations. Aliquots were plated on SDA or TSB, and colonies were counted after 24–48 h (C. albicans) or 24 h (P. aeruginosa). At each point, samples were stained with propidium iodide (PI) and intracellular PI incorporation, indicative of membrane permeabilization, was quantified by flow cytometry. The relative cell viability (blue lines) and cellular permeabilization (red lines) were calculated as the percentage of untreated cells. […]
Microbial susceptibility to the peptides was determined in a spread-plate assay as described previously. […] The cell viability values, expressed as colony forming units (CFUs), were determined relative to incubation without added peptides and represent the mean ± standard deviation (±SD) of at least three independent determinations. […]

P. aeruginosa cells [2] = test: Cell membrane permeability assay (propidium iodide, flow cytometry); type: cell-based, Pseudomonas aeruginosa; details: 90 min, 37 °C, range of concentrations, PI 9 μM
Protocol: (§2) To determine whether Kal-1 and Kdp15 exert a permeabilizing effect on fungal or bacterial membranes, the cellular influx of the fluorescent nucleic-acid-binding dye propidium iodide (PI) was assessed. As PI itself cannot permeate through an intact phospholipid bilayer, only permeabilized cells take up PI, resulting in DNA intercalation and fluorescence.
(§3) Flow cytometry was used to assess the ability of peptides to permeabilize plasma membranes of cells in incorporation of the DNA intercalating dye propidium iodide (PI). C. albicans or P. aeruginosa cells (10^6 cells/mL) in Tris buffer were incubated with two-fold serially diluted peptides for 90 min at 37 °C and subsequently reincubated with PI (9 μM, final concentration) for 5 min. The suspensions were centrifuged at 1100× g for 10 min and subsequently washed with Tris buffer to remove any unbound PI. The peptide Lfpep was used to disrupt the cytoplasmic membrane (positive control). Cell fluorescence was monitored using a Cytomics FC500 Flow Cytometer (Beckman Coulter Life Sciences, Indianapolis, IN, USA). The PI fluorescence was excited at a wavelength of 488 nm and emission was registered at 610 nm. For each treatment, 20,000 events were measured. Data were acquired and analyzed using CytExpert 2.1 software. Results were expressed as the percentage of PI-positive cells with respect to the unstained cells (control). […]

C. albicans cells [3] = test: Oxygen consumption measurement (Clark-type electrode); type: cell-based, Candida albicans; details: 5 × 10^6 cells/mL, peptides at IC50, piericidin A 32 μM, at least 30 min, 25 °C
Protocol: (§4) Figure 3 Effect of cellular respiration on the microbicidal activity of hLf γ-core-containing peptides. (A,C) Oxygen consumption was measured in C. albicans and P. aeruginosa cellular suspensions in the absence (control) or the presence of kaliocin-1 (Kal-1), Kdp15, or human lactoferrin (hLf), and piericidin A (positive control). (B,D) Effect of cellular respiration on the microbicidal activity of hLf γ-core-containing peptides. Cells (10^6 cells/mL) were pre-incubated (15 min, 37 °C) with 32 μM piericidin A and incubated for 90 min at 37 °C with the peptides hLf or BM2. The cell viability was determined by means of the plate counting method. The results are the mean ± SD from duplicates of at least three independent experiments. * p < 0.05, ** p < 0.01, and *** p < 0.001 were used.
(§5) C. albicans or P. aeruginosa cells were grown to the mid-logarithmic phase, washed twice in Tris buffer, and resuspended in the same buffer, as described in [9, 10]. Briefly, cells (5 × 10^6 cells/mL) were pre-incubated for 15 min at 37 °C with the peptides (IC50). […] Oxygen consumption was measured using a Clark-type oxygen electrode (Dual digital-model 20, Rank Brothers Ltd., Cambridge, UK) in a closed jacketed chamber maintained at 25 °C. […] The viability of the cells was determined at 30 min by removing aliquots from the oxygen chambers and plating the subsequent dilutions on SDA or TSA plates.

C. albicans cells [4] = test: Cell membrane permeability assay (propidium iodide, flow cytometry); type: cell-based, Candida albicans; details: 90 min, 37 °C, range of concentrations, PI 9 μM
Protocol: as §2, §3

P. aeruginosa cells [5] = test: Oxygen consumption measurement (Clark-type electrode); type: cell-based, Pseudomonas aeruginosa; details: 5 × 10^6 cells/mL, peptides at IC50, piericidin A 32 μM, at least 30 min, 25 °C
Protocol: as §4, §5

C. albicans cells [6] = test: Measurement of intracellular ATP (BacTiter-Glo); type: cell-based, Candida albicans; details: C. albicans 10^6 cells/mL, candidacidal concentration, 90 min, 37 °C; BM2 0.25 μM
Protocol: Total ATP was measured by using the BacTiter-Glo^TM Microbial Cell Viability Assay (Promega Co., Madison, WI, USA) according to the manufacturer’s instructions. […] Aliquots (100 μL) were incubated (90 min at 37 °C) with kaliocin-1, Kdp15, or human lactoferrin and the BM2 peptide (positive control). One hundred microliters of incubation mix was transferred into a 96-well opaque white plate, mixed with an equal volume of the BacTiter-Glo reagent, and incubated for 15 min in the dark. The reagent used a thermostable luciferase to produce luminescence in an ATP-dependent manner. The emitted luminescence was detected by using a Varioskan Flash multimode reader (Thermo Scientific, Waltham, MA, USA) with a 10 s of shaking and 1 s integration time. A calibration curve was prepared for each experiment, with ATP standards ranging from 1 to 1000 nM. For assays performed in the presence of the BM2 peptide, samples were preincubated with 0.25 μM BM2 for 30 min at 37 °C. All the tests were performed in triplicate at least four times.

[7] = system: Candida albicans ATCC 10231; details: used in control assays; cited from earlier work
Protocol: as §1, with “peptide. The hLf γ-core-containing peptides were microbicidal in a concentration-dependent way (Figure 1). […] The IC50 es ...” for “peptide.”

[8] = system: Pseudomonas aeruginosa 10145 (PAO1); details: used in control assays; cited from earlier work
Protocol: as §1, with “peptide. The hLf γ-core-containing peptides were microbicidal in a concentration-dependent way (Figure 1). […] The IC50 es ...” for “peptide.”

[9] = system: Candida albicans ATCC 10231; test: Microbicidal (spread-plate cell viability) assay, candidacidal activity; type: cell-based
Protocol: as §1
Figure 1 Cell viability and membrane permeabilization assays. C. albicans or P. aeruginosa (10^6 cells/mL) were incubated (90 min, 37 °C) with each peptide/protein at the indicated concentrations. Aliquots were plated on SDA or […], and colonies were counted after 24–48 h (C. albicans) or 24 h (P. aeruginosa). At each point, samples were stained with propidium iodide (PI) and intracellular PI incorporation, indicative of membrane permeabilization, was quantified by flow cytometry. The relative cell viability (blue lines) and cellular permeabilization (red lines) were calculated as the percentage of untreated cells. Human lactoferrin (hLf) and the peptide Lfpep were used as negative and positive controls of cellular permeabilization, respectively.
Microbial susceptibility to the peptides was determined in a spread-plate assay as described previously. Briefly, two-fold serially diluted peptides were incubated (37 °C) with approximately 10^6 cells/mL in Tris buffer (10 mM Tris-HCl, pH 7.4). After 90 min of incubation with the peptides, aliquots were removed and plated in duplicate on an appropriate agar plate for each species (SDA for C. albicans, TSA for P. aeruginosa). The plates were incubated for 24–48 h at 30 °C (C. albicans) or 24 h at 37 °C (P. aeruginosa) for enumeration. The cell viability values, expressed as colony forming units (CFUs), were determined relative to incubation without added peptides and represent the mean ± standard deviation (±SD) of at least three independent determinations. For inhibition assays, the cell suspensions were preincubated (15 min at 37 °C) with the corresponding inhibitors before the addition of peptides. […]

B1: hLf: Recombinant human apo-lactoferrin, PM H^+-ATPase inhibitor control (protein, UniProt P02788 20-710, looked up)
Lactotransferrin: GRRRSVQWCAVSQPEATKCFQWQRNMRKVRGPPVSCIKRDSPIQCIQAIAENRADAVTLDGGFIYEAGLAPYKLRPVAAEVYGTERQPRTHYYAVAVVKKGGSFQLNELQGLKSCHTGLRRTAGWNVPIGTLRPFLNWTGPPEPIEAAVARFFSASCVPGADKGQFPNLCRLCAGTGENKCAFSSQEPYFSYSGAFKCLRDGAGDVAFIRESTVFEDLSDEAERDEYELLCPDNTRKPVDKFKDCHLARVPSHAVVARSVNGKEDAIWNLLRQAQEKFGKDKSPKFQLFGSPSGQKDLLFKDSAIGFSRVPPRIDSGLYLGSGYFTAIQNLRKSEEEVAARRARVVWCAVGEQELRKCNQWSGLSEGSVTCSSASTTEDCIALVLKGEADAMSLDGGYVYTAGKCGLVPVLAENYKSQQSSDPDPNCVDRPVEGYLAVAVVRRSDTSLTWNSVKGKKSCHTAVDRTAGWNIPMGLLFNQTGSCKFDEYFSQSCAPGSDPRSNLCALCIGDEQGENKCVPNSNERYYGYTGAFRCLAENAGDVAFVKDVTVLQNTDGNNNEAWAKDLKLADFALLCLDGKRKPVTEARSCHLAMAPNHAVVSRMDKVERLKQVLLHQQAKFGRNGSDCPDKFCLFQSETKNLLFNDNTECLARLHGKTTYEKYLGPQYVAGITNLKKCSTSPLLEACEFLRK
modifications: apo form
effect of high external K^+ on pseudomonacidal activity [1]: seemed to protect | PI fluorescent cells (plasma membrane permeabilization), P. aeruginosa (P. aeruginosa cells [2]): not significantly increased | oxygen consumption of C. albicans in presence of the substance (C. albicans cells [3]): inability of the native protein hLf to inhibit | PI fluorescent cells (plasma membrane permeabilization), C. albicans (C. albicans cells [4]): not significantly increased | oxygen consumption of P. aeruginosa in presence of the substance (P. aeruginosa cells [5]): inability of the native protein hLf to inhibit | increment in intracellular ATP (iATP) level compared to untreated control (C. albicans cells [6]): ~ 6 fold | previously reported microbicidal concentration against C. albicans [7]: 5 µM | previously reported microbicidal concentration against P. aeruginosa [8]: 1 µM | IC50 ([9]; 90 min, 37 °C, 10 mM Tris-HCl pH 7.4, 10^6 cells/mL, CFU plating, estimated, read-out: IC50 (concentration that caused 50% reduction in viable counts) against C. albicans): 3 µM | effect of high external K^+ on candidacidal activity ([9]; Tris buffer with 50 mM KCl vs without): seemed to protect | effect of Tok1p K^+ channel block (TEA^+) on candidacidal activity ([9]; cells pre-incubated 15 min with 10 mM TEA^+): less susceptible
